We go through two molecules from publication PMC7544233 (2020).

In data set [1] the test system is FAM-D-hTERC rG4 (RNA, G4) GGGUUGCGGAGGGUGGGCCU
The experiment in a line: microscale thermophoresis. Particulars: 150 mM KCl, 1 mM MgCl2; 25 mM Tris-HCl pH 7.5, 25 °C, 40 nM RNA. A general note: Microscale thermophoresis detects binding through changes in fluorescence in a small temperature gradient.

The target of data set [2] is nucleolin (UniProt P19338 1-710). The experiment in a line: EMSA.
Data set [3] deals with T1, RHAU53 peptide (UniProt Q9H2U1 53-105).
T1 sequence: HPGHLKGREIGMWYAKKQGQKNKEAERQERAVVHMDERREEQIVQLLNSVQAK
The data set is described as follows: EMSA.

Sequence of nucleolin (P19338 whole entry): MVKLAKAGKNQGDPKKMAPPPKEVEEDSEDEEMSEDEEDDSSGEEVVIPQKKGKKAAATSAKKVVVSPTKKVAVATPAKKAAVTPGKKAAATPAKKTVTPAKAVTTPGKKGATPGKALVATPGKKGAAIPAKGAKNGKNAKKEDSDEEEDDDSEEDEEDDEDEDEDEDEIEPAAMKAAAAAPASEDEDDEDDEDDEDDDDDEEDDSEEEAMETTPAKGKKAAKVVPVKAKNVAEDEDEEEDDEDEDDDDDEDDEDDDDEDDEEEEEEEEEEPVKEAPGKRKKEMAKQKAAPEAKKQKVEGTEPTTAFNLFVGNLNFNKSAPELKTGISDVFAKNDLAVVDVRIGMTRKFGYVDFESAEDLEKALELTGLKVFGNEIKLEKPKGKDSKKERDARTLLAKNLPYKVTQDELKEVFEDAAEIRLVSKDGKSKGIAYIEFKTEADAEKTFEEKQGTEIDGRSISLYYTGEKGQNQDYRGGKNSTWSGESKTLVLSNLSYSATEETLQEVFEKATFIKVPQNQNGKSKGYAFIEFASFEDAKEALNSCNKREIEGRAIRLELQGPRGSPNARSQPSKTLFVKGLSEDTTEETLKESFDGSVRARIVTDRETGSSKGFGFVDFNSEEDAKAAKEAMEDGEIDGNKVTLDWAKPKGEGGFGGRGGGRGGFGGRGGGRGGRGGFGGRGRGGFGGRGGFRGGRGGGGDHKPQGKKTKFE

The term Kd denotes the constant that tells how readily two partners part at equilibrium. High values mean lower affinity, low ones higher affinity. In data set [1], `NCCOc1cc(NC(=O)c2cc(OCc3cn(CCC(=O)O)nn3)cc(C(=O)Nc3cc(OCCN)c4ccccc4n3)n2)nc2ccccc12` registered a Kd of 19.5 ± 11.5 nM.
In the case of GGGUUGCGGAGGGUGGGCCU (structured_RNA) [D-hTERC rG4], the binding result in data set [2] is given as “binds”. Moreover, the equilibrium dissociation constant (Kd) in data set [3] worked out at 24.5 ± 3.9 nM.
